From PMC4278676 come the findings set out here.

The term Km denotes the substrate concentration at which the rate is half of its maximum. Usually kcat stands for the maximal rate divided by the concentration of active sites. As usually defined, the kcat/Km is the turnover number divided by the Michaelis constant.

Substrate in this data set: Nc1ncnc2c1ncn2[C@@H]1O[C@H](COP(=O)(O)OP(=O)(O)OP(=O)(O)O)[C@@H](O)[C@H]1O
Put plainly: purified protein. As to conditions: co-substrate Co(II)Cbi^+.

B1: SeCobA (Salmonella enterica subsp. enterica serovar Typhimurium str. LT2) (protein)
chain: MSDERYQQRQQKVKDRVDARVAQAQEERGIIIVFTGNGKGKTTAAFGTAARAVGHGKNVGVVQFIKGTWPNGERNLLEPHGVEFQVMATGFTWETQNREADTAACMAVWQHGKRMLADPLLDMVVLDELTYMVAYDYLPLEEVISALNARPGHQTVIITGRGCHRDILDLADTVSELRPVKHAFDAGVKAQMGIDY
For B1, the Km came out at 25.4 ± 9.0 µM, the kcat was 0.0067 s⁻¹ and the kcat/Km came out at 260 M⁻¹ s⁻¹.
